In the supplement of paper PMC10065799, “High-throughput profiling of sequence recognition by tyrosine kinases and SH2 domains using bacterial peptide display” (eLife, 2023):
Values belong to the sequence of their own block, whether it stands above or below them.

Tests used:
EPHB2 = EPHB2 (UniProt P29323); assay: phosphorylation enrichment, bacterial display (enrichment ratio); higher = better substrate or ligand; peptides without Tyr show the background
c-Src = assay: as above
MERTK = MERTK (UniProt Q12866); assay: as above
EPHB1 = EPHB1 (UniProt P54762); assay: as above
FGFR1 = FGFR1 (UniProt P11362); assay: as above
AncSZ = assay: as above
Jak2 = Jak2 (UniProt O60674); assay: as above
FGFR3 = FGFR3 (UniProt P22607); assay: as above
c-Abl (mouse) = assay: as above
Hck = Hck (UniProt P08631); assay: as above
Fyn = Fyn (UniProt P06241); assay: as above
Fer (mouse) = assay: as above
Fes = Fes (UniProt P07332); assay: as above
Grb2 SH2 = Grb2 SH2 (UniProt P62993); assay: SH2 binding enrichment of the phosphorylated peptide, bacterial display (enrichment ratio); higher = better substrate or ligand; peptides without Tyr show the background
SHP2-C SH2 = assay: as above
c-Src SH2 = assay: as above
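Throughout, for SH2 binding enrichment of the phosphorylated peptide, bacterial display: peptide library displayed on the E. coli surface as eCPX fusions, selected cells deep-sequenced, score is each peptide's frequency after selection divided by its frequency in the input.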
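Throughout, for phosphorylation enrichment, bacterial display: 11-residue human phosphosite peptides and single-mutation variants displayed on the E. coli surface, counted by deep sequencing, each peptide's frequency after selection divided by its frequency in the unselected input library; frequency after pTyr selection over input frequency; kinase dosed for 20-30% of maximal phosphorylation in three min.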

Chain of Hck (P08631 whole entry, looked up): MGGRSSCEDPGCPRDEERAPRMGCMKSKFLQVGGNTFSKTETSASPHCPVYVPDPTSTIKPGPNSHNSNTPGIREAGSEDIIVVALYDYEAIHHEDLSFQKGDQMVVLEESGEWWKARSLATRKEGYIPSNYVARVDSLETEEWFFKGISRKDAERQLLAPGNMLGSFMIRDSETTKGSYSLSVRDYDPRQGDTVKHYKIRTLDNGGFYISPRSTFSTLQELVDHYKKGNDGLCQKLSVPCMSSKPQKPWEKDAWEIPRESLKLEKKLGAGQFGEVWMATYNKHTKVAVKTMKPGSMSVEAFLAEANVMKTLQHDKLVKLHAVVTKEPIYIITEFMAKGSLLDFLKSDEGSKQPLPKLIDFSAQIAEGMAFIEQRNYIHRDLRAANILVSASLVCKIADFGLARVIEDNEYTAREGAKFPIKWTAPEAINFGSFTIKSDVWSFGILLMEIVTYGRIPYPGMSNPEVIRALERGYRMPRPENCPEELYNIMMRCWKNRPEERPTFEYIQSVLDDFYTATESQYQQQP
Chain of MERTK (Q12866 whole entry, looked up): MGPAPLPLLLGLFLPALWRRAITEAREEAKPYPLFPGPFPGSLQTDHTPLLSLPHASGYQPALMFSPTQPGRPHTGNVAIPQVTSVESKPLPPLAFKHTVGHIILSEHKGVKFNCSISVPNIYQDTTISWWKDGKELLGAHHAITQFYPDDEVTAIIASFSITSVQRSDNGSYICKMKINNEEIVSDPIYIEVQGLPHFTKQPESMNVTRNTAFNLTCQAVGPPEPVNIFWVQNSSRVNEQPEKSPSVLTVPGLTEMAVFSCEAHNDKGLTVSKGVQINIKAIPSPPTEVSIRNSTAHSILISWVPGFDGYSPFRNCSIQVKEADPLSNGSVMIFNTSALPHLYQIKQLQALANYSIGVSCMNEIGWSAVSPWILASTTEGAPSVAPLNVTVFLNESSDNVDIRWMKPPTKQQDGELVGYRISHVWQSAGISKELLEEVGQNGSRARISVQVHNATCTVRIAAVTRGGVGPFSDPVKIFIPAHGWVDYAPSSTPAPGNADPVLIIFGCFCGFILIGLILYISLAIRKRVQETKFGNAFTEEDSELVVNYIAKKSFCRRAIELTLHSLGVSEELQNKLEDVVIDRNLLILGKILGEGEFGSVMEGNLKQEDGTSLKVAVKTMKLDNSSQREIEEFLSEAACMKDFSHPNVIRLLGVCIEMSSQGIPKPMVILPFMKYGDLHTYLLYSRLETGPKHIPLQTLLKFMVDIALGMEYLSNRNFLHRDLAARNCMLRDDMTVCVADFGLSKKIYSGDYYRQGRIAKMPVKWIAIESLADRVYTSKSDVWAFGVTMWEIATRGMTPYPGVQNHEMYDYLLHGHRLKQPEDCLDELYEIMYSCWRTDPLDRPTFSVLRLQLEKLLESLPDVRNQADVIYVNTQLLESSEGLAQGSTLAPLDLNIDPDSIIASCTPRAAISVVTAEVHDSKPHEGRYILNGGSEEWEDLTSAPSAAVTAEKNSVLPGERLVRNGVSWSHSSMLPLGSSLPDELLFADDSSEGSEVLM
Chain of FGFR1 (P11362 whole entry, looked up): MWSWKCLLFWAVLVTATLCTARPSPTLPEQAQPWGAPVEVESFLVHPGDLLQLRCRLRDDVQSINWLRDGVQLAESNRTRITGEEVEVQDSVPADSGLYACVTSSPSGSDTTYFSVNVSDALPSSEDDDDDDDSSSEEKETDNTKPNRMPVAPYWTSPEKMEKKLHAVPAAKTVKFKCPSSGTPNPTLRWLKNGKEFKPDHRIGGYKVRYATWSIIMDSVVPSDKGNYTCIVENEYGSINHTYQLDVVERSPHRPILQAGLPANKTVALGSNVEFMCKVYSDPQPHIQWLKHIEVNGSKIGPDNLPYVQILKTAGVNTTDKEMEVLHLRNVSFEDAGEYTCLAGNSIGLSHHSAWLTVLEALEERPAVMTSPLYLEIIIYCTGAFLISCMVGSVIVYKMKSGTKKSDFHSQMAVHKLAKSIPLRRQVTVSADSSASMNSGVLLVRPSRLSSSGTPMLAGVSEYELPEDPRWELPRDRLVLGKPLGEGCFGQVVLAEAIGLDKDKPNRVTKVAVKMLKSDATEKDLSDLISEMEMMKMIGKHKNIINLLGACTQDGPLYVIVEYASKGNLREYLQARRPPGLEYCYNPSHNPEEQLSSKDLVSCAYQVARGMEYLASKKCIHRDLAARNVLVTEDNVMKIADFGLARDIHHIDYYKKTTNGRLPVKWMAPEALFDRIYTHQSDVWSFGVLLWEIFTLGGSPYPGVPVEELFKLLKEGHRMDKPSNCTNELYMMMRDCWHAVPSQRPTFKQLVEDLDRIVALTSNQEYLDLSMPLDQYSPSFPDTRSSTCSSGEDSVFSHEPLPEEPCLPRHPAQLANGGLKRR
Chain of Fes (P07332 whole entry, looked up): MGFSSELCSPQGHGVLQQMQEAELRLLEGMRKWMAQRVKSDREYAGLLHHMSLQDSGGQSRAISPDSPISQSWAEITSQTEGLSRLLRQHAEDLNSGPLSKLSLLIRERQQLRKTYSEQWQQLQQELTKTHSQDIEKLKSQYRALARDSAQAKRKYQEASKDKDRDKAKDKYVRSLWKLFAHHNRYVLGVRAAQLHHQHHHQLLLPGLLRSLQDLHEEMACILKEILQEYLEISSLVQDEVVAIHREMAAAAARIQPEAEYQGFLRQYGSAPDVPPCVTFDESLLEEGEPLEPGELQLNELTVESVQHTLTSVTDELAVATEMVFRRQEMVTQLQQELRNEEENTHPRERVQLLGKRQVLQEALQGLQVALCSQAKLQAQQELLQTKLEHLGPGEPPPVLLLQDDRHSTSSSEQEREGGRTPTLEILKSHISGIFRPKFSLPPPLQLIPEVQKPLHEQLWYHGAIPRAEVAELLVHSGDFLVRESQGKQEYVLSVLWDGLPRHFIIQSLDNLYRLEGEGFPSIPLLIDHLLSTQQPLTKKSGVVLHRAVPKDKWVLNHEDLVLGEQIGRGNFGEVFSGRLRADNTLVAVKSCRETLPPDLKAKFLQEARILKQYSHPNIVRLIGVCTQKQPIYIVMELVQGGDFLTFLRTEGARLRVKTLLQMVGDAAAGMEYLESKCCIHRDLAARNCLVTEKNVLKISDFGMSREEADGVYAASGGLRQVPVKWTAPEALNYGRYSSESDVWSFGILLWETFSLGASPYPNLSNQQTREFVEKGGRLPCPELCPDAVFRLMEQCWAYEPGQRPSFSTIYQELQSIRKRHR
Chain of FGFR3 (P22607 whole entry, looked up): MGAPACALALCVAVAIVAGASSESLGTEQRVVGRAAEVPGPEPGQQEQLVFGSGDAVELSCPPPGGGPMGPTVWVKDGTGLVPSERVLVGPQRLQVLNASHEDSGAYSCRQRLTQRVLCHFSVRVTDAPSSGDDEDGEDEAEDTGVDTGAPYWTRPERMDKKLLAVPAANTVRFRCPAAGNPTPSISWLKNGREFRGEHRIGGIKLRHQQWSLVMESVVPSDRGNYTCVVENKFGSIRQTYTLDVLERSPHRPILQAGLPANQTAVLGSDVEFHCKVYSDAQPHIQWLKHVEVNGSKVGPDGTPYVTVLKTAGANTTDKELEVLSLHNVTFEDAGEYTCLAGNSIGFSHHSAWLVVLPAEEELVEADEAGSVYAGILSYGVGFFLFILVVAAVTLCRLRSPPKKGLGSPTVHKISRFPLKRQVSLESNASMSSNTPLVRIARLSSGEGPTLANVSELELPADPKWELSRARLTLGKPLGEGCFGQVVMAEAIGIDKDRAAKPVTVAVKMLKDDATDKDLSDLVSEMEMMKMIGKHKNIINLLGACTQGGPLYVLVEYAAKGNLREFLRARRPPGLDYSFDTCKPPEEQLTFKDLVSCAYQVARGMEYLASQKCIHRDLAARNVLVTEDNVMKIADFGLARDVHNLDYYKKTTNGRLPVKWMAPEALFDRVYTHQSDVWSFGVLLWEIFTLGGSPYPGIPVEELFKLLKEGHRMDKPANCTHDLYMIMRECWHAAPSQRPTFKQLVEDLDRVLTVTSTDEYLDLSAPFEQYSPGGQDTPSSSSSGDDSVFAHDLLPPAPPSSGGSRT
Chain of Fyn (P06241 whole entry, looked up): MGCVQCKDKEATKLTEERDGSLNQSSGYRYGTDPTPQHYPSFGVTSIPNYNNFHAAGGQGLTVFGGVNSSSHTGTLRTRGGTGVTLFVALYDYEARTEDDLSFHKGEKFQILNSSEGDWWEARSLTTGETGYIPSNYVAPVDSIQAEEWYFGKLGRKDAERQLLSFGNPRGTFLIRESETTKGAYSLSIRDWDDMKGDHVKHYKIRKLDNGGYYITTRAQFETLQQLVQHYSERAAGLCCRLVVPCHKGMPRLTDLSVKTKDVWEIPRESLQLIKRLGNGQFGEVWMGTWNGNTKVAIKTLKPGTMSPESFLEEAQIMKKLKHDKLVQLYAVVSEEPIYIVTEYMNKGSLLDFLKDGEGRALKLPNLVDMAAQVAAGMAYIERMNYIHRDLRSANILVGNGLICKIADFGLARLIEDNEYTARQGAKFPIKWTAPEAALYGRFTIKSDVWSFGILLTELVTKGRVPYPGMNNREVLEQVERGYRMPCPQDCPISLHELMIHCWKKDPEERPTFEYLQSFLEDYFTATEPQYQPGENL

Sequence: MILSAYALGGL [CPS1_Y590_R587L]
phosphorylation enrichment (EPHB2): 0.562
phosphorylation enrichment (c-Src): 0.584
phosphorylation enrichment (MERTK): 0.436
phosphorylation enrichment (EPHB1): 0.655
phosphorylation enrichment (FGFR1): 0.431
phosphorylation enrichment (AncSZ): 0.894
phosphorylation enrichment (Jak2): 0.928
phosphorylation enrichment (FGFR3): 0.675
phosphorylation enrichment (c-Abl (mouse)): 0.736
phosphorylation enrichment (Hck): 0.497
phosphorylation enrichment (Fyn): 0.458
phosphorylation enrichment (Fer (mouse)): 0.552
phosphorylation enrichment (Fes): 1
SH2 binding enrichment (Grb2 SH2): 0.835
SH2 binding enrichment (SHP2-C SH2): 0.794
SH2 binding enrichment (c-Src SH2): 0.708

Sequence: LWKWRYEELKE [CCDC102B_Y299_K298R]
phosphorylation enrichment (EPHB2): 1.09
phosphorylation enrichment (c-Src): 0.715
phosphorylation enrichment (MERTK): 0.909
phosphorylation enrichment (EPHB1): 1.28
phosphorylation enrichment (FGFR1): 0.503
phosphorylation enrichment (AncSZ): 1.34
phosphorylation enrichment (Jak2): 2.73
phosphorylation enrichment (FGFR3): 1.02
phosphorylation enrichment (c-Abl (mouse)): 1.7
phosphorylation enrichment (Hck): 0.561
phosphorylation enrichment (Fyn): 0.629
phosphorylation enrichment (Fer (mouse)): 0.771
phosphorylation enrichment (Fes): 2.5
SH2 binding enrichment (Grb2 SH2): 1.29
SH2 binding enrichment (SHP2-C SH2): 1.36
SH2 binding enrichment (c-Src SH2): 2.08

Sequence: TQNAVYSAANF [DDX5_Y535_G533A_YF]
phosphorylation enrichment (EPHB2): 4.24
phosphorylation enrichment (c-Src): 8.46
phosphorylation enrichment (MERTK): 8.98
phosphorylation enrichment (EPHB1): 3.15
phosphorylation enrichment (FGFR1): 0.519
phosphorylation enrichment (AncSZ): 0.634
phosphorylation enrichment (Jak2): 0.526
phosphorylation enrichment (FGFR3): 0.515
phosphorylation enrichment (c-Abl (mouse)): 7.53
phosphorylation enrichment (Hck): 12
phosphorylation enrichment (Fyn): 10.3
phosphorylation enrichment (Fer (mouse)): 6.31
phosphorylation enrichment (Fes): 0.694
SH2 binding enrichment (Grb2 SH2): 0.958
SH2 binding enrichment (SHP2-C SH2): 0.704
SH2 binding enrichment (c-Src SH2): 0.631

Sequence: YGPPQYNIQYS [ERBB2IP_Y977]
phosphorylation enrichment (EPHB2): 0.592
phosphorylation enrichment (c-Src): 0.617
phosphorylation enrichment (MERTK): 0.602
phosphorylation enrichment (EPHB1): 0.412
phosphorylation enrichment (FGFR1): 0.462
phosphorylation enrichment (AncSZ): 0.989
phosphorylation enrichment (Jak2): 0.655
phosphorylation enrichment (FGFR3): 0.557
phosphorylation enrichment (c-Abl (mouse)): 0.858
phosphorylation enrichment (Hck): 0.72
phosphorylation enrichment (Fyn): 0.549
phosphorylation enrichment (Fer (mouse)): 0.672
phosphorylation enrichment (Fes): 0.802
SH2 binding enrichment (Grb2 SH2): 0.728
SH2 binding enrichment (SHP2-C SH2): 0.986
SH2 binding enrichment (c-Src SH2): 0.322

Sequence: NTFEKYWPFFQ [GATM_Y103_YF]
phosphorylation enrichment (EPHB2): 0.512
phosphorylation enrichment (c-Src): 0.935
phosphorylation enrichment (MERTK): 0.886
phosphorylation enrichment (EPHB1): 0.488
phosphorylation enrichment (FGFR1): 1.08
phosphorylation enrichment (AncSZ): 0.987
phosphorylation enrichment (Jak2): 0.898
phosphorylation enrichment (FGFR3): 1.08
phosphorylation enrichment (c-Abl (mouse)): 0.795
phosphorylation enrichment (Hck): 1.42
phosphorylation enrichment (Fyn): 0.69
phosphorylation enrichment (Fer (mouse)): 0.429
phosphorylation enrichment (Fes): 1.09
SH2 binding enrichment (Grb2 SH2): 1.5
SH2 binding enrichment (SHP2-C SH2): 1.24
SH2 binding enrichment (c-Src SH2): 0.926

Sequence: FSPPYYHRNCM [HGD_Y334_R330S]
phosphorylation enrichment (EPHB2): 0.664
phosphorylation enrichment (c-Src): 0.482
phosphorylation enrichment (MERTK): 0.451
phosphorylation enrichment (EPHB1): 0.558
phosphorylation enrichment (FGFR1): 0.66
phosphorylation enrichment (AncSZ): 0.807
phosphorylation enrichment (Jak2): 0.817
phosphorylation enrichment (FGFR3): 0.609
phosphorylation enrichment (c-Abl (mouse)): 0.749
phosphorylation enrichment (Hck): 0.515
phosphorylation enrichment (Fyn): 0.505
phosphorylation enrichment (Fer (mouse)): 0.482
phosphorylation enrichment (Fes): 0.957
SH2 binding enrichment (Grb2 SH2): 0.876
SH2 binding enrichment (SHP2-C SH2): 0.778
SH2 binding enrichment (c-Src SH2): 0.606

Sequence: NFRNTYVNANE [KCNH2_Y475_T473N]
phosphorylation enrichment (EPHB2): 0.395
phosphorylation enrichment (c-Src): 0.424
phosphorylation enrichment (MERTK): 0.404
phosphorylation enrichment (EPHB1): 0.373
phosphorylation enrichment (FGFR1): 0.434
phosphorylation enrichment (AncSZ): 0.559
phosphorylation enrichment (Jak2): 0.577
phosphorylation enrichment (FGFR3): 0.474
phosphorylation enrichment (c-Abl (mouse)): 0.467
phosphorylation enrichment (Hck): 0.466
phosphorylation enrichment (Fyn): 0.404
phosphorylation enrichment (Fer (mouse)): 0.358
phosphorylation enrichment (Fes): 0.677
SH2 binding enrichment (Grb2 SH2): 29.8
SH2 binding enrichment (SHP2-C SH2): 1.55
SH2 binding enrichment (c-Src SH2): 2.64

Sequence: TTKAKYKTPTF [PLD2_Y573_YF]
phosphorylation enrichment (EPHB2): 0.235
phosphorylation enrichment (c-Src): 0.39
phosphorylation enrichment (MERTK): 0.374
phosphorylation enrichment (EPHB1): 0.305
phosphorylation enrichment (FGFR1): 0.224
phosphorylation enrichment (AncSZ): 0.417
phosphorylation enrichment (Jak2): 0.416
phosphorylation enrichment (FGFR3): 0.309
phosphorylation enrichment (c-Abl (mouse)): 0.551
phosphorylation enrichment (Hck): 0.4
phosphorylation enrichment (Fyn): 0.326
phosphorylation enrichment (Fer (mouse)): 0.357
phosphorylation enrichment (Fes): 0.476
SH2 binding enrichment (Grb2 SH2): 0.778
SH2 binding enrichment (SHP2-C SH2): 0.693
SH2 binding enrichment (c-Src SH2): 0.509

Sequence: MENFIYESMRY [CYP19A1_Y361]
phosphorylation enrichment (EPHB2): 3.32
phosphorylation enrichment (c-Src): 6.18
phosphorylation enrichment (MERTK): 2.31
phosphorylation enrichment (EPHB1): 5.46
phosphorylation enrichment (FGFR1): 0.569
phosphorylation enrichment (AncSZ): 1.23
phosphorylation enrichment (Jak2): 0.839
phosphorylation enrichment (FGFR3): 0.728
phosphorylation enrichment (c-Abl (mouse)): 1.25
phosphorylation enrichment (Hck): 6.76
phosphorylation enrichment (Fyn): 8.43
phosphorylation enrichment (Fer (mouse)): 13.1
phosphorylation enrichment (Fes): 3.6
SH2 binding enrichment (Grb2 SH2): 0.819
SH2 binding enrichment (SHP2-C SH2): 0.553
SH2 binding enrichment (c-Src SH2): 0.627

Sequence: QLAPQYTFTQG [FLNA_Y1761_A1764T_YF]
phosphorylation enrichment (EPHB2): 0.845
phosphorylation enrichment (c-Src): 1.12
phosphorylation enrichment (MERTK): 1.1
phosphorylation enrichment (EPHB1): 0.621
phosphorylation enrichment (FGFR1): 0.918
phosphorylation enrichment (AncSZ): 1.27
phosphorylation enrichment (Jak2): 1.21
phosphorylation enrichment (FGFR3): 0.982
phosphorylation enrichment (c-Abl (mouse)): 1.49
phosphorylation enrichment (Hck): 0.748
phosphorylation enrichment (Fyn): 1.09
phosphorylation enrichment (Fer (mouse)): 0.58
phosphorylation enrichment (Fes): 1.09
SH2 binding enrichment (Grb2 SH2): 0.915
SH2 binding enrichment (SHP2-C SH2): 0.5
SH2 binding enrichment (c-Src SH2): 0.635

Second part, led by results:

SH2 binding enrichment (Grb2 SH2): 0.973
SH2 binding enrichment (SHP2-C SH2): 0.62
SH2 binding enrichment (c-Src SH2): 0.592
Sequence: HFVDEYDQTIE [KRAS_Y32_P34Q]
phosphorylation enrichment (EPHB2): 1.07
phosphorylation enrichment (c-Src): 0.935
phosphorylation enrichment (MERTK): 0.804
phosphorylation enrichment (EPHB1): 1.1
phosphorylation enrichment (FGFR1): 0.93
phosphorylation enrichment (AncSZ): 2.79
phosphorylation enrichment (Jak2): 2.14
phosphorylation enrichment (FGFR3): 0.852
phosphorylation enrichment (c-Abl (mouse)): 1.01
phosphorylation enrichment (Hck): 0.835
phosphorylation enrichment (Fyn): 0.897
phosphorylation enrichment (Fer (mouse)): 0.667
phosphorylation enrichment (Fes): 2.04

SH2 binding enrichment (Grb2 SH2): 1.11
SH2 binding enrichment (SHP2-C SH2): 0.908
SH2 binding enrichment (c-Src SH2): 1.61
Sequence: PFQGAYLKINK [MYO1B_Y967_E969K]
phosphorylation enrichment (EPHB2): 0.571
phosphorylation enrichment (c-Src): 0.319
phosphorylation enrichment (MERTK): 0.461
phosphorylation enrichment (EPHB1): 0.539
phosphorylation enrichment (FGFR1): 0.417
phosphorylation enrichment (AncSZ): 1.1
phosphorylation enrichment (Jak2): 1.18
phosphorylation enrichment (FGFR3): 0.909
phosphorylation enrichment (c-Abl (mouse)): 0.88
phosphorylation enrichment (Hck): 0.643
phosphorylation enrichment (Fyn): 0.582
phosphorylation enrichment (Fer (mouse)): 0.853
phosphorylation enrichment (Fes): 1.52

SH2 binding enrichment (Grb2 SH2): 0.79
SH2 binding enrichment (SHP2-C SH2): 0.609
SH2 binding enrichment (c-Src SH2): 0.513
Sequence: ETKKQYDSFTF [TMED3_Y85_YF]
phosphorylation enrichment (EPHB2): 0.397
phosphorylation enrichment (c-Src): 0.564
phosphorylation enrichment (MERTK): 0.424
phosphorylation enrichment (EPHB1): 0.422
phosphorylation enrichment (FGFR1): 0.411
phosphorylation enrichment (AncSZ): 0.7
phosphorylation enrichment (Jak2): 0.76
phosphorylation enrichment (FGFR3): 0.643
phosphorylation enrichment (c-Abl (mouse)): 0.681
phosphorylation enrichment (Hck): 0.457
phosphorylation enrichment (Fyn): 0.517
phosphorylation enrichment (Fer (mouse)): 0.407
phosphorylation enrichment (Fes): 0.9

SH2 binding enrichment (Grb2 SH2): 0.722
SH2 binding enrichment (SHP2-C SH2): 0.576
SH2 binding enrichment (c-Src SH2): 0.552
Sequence: PVDVAYRHGFF [PLEC_Y2967_R2969H_YF]
phosphorylation enrichment (EPHB2): 0.268
phosphorylation enrichment (c-Src): 0.325
phosphorylation enrichment (MERTK): 0.366
phosphorylation enrichment (EPHB1): 0.32
phosphorylation enrichment (FGFR1): 0.574
phosphorylation enrichment (AncSZ): 0.482
phosphorylation enrichment (Jak2): 0.511
phosphorylation enrichment (FGFR3): 0.458
phosphorylation enrichment (c-Abl (mouse)): 0.473
phosphorylation enrichment (Hck): 0.553
phosphorylation enrichment (Fyn): 0.324
phosphorylation enrichment (Fer (mouse)): 0.342
phosphorylation enrichment (Fes): 0.85

SH2 binding enrichment (Grb2 SH2): 0.948
SH2 binding enrichment (SHP2-C SH2): 1.01
SH2 binding enrichment (c-Src SH2): 0.656
Sequence: KFSNQYKATIG [RAB7A_Y37]
phosphorylation enrichment (EPHB2): 0.311
phosphorylation enrichment (c-Src): 0.485
phosphorylation enrichment (MERTK): 0.4
phosphorylation enrichment (EPHB1): 0.47
phosphorylation enrichment (FGFR1): 0.351
phosphorylation enrichment (AncSZ): 0.528
phosphorylation enrichment (Jak2): 0.538
phosphorylation enrichment (FGFR3): 0.411
phosphorylation enrichment (c-Abl (mouse)): 0.471
phosphorylation enrichment (Hck): 0.44
phosphorylation enrichment (Fyn): 0.41
phosphorylation enrichment (Fer (mouse)): 0.463
phosphorylation enrichment (Fes): 0.613

SH2 binding enrichment (Grb2 SH2): 1.12
SH2 binding enrichment (SHP2-C SH2): 0.575
SH2 binding enrichment (c-Src SH2): 0.639
Sequence: FADIAYNYRDG [PAH_Y166_H170D]
phosphorylation enrichment (EPHB2): 0.501
phosphorylation enrichment (c-Src): 0.418
phosphorylation enrichment (MERTK): 0.363
phosphorylation enrichment (EPHB1): 0.404
phosphorylation enrichment (FGFR1): 0.397
phosphorylation enrichment (AncSZ): 0.942
phosphorylation enrichment (Jak2): 1.04
phosphorylation enrichment (FGFR3): 0.622
phosphorylation enrichment (c-Abl (mouse)): 0.545
phosphorylation enrichment (Hck): 0.352
phosphorylation enrichment (Fyn): 0.371
phosphorylation enrichment (Fer (mouse)): 0.376
phosphorylation enrichment (Fes): 0.836
